Test results from patent US11156558B2, “Assessment of stability of biological product in prefilled syringes” (Becton Dickinson France, priority 2016, dated 2021).

Key:
[1] = Stability of mimetic peptide solution stored in direct contact with adhesive and insoluble tungsten (UPLC/DAD); assay type: physicochemical; settings: insoluble tungsten, 3 days at 70° C., ammonium acetate pH4 buffer (20 mM)+0.02% tween 80, 45 μg/ml
Protocol: (§1) Peptide solutions were analyzed by LC/DAD/MS with Quattro premier XE Mass spectrometer from Waters.
The AAHAA (SEQ ID NO: 2) peptide was dissolved in ammonium acetate pH4 buffer (20 mM)+0.02% of tween 80 to a final concentration of 45 μg/ml. The AAHAA (SEQ ID NO: 2) peptide solution was stored in direct contact with the adhesive used to stake the needle to the syringe and with insoluble tungsten, a potential process residue, for 3 days at 70° C.
FIG. 3 is AAHAA (SEQ ID NO: 2) peptide ULPC/DAD chromatograms after 3 days at 70° C. in direct contact with two syringe components: (a) adhesive and (b) insoluble tungsten. (c) is chromatogram references.

[2] = Stability of mimetic peptide solution stored in direct contact with plunger stoppers (UPLC/DAD/MS); assay type: physicochemical
Protocol: as §1
The peptide AAWAA (SEQ ID NO: 1) was dissolved in ammonium acetate pH4 buffer (20 mM)+0.02% Tween 80 to a final concentration of 45 μg/ml. The obtained AAWAA (SEQ ID NO: 1) peptide solutions were stored in direct contact with a non-coated and an ETFE coated plunger stoppers for 30 days at 25° C./60% RH.
FIG. 1 is a UPLC/DAD chromatogram of AAWAA (SEQ ID NO: 1) pentapeptide in direct contact with a coated and a non-coated plunger stopper after 15 days (c, d) and 30 days (a,b) of storage at 25° C./60% RH. Chromatograms e and f are AAWAA (SEQ ID NO: 1) solutions references (without any direct contact with plunger stoppers),
FIG. 2 is the electrospray positiv (ESI+) mass spectra of (a) intact AAWAA (SEQ ID NO: 1) peptide (Retention time of 17.2 min) and (b) oxidized form of AAWAA (SEQ ID NO: 1)(Retention time of 17.1 min) detected after 30 days (25° C.) of contact between the non-coated plunger stopper and AAWAA (SEQ ID NO: 1) peptide solution.

| Substance | reaction with syringe component (degradation) [1] | oxidized form (ESI+ mass spectra) ([2]; after 30 days (25° C.) of contact with the non-coated plunger stopper) | degradation yield ([2]; non-coated vs ETFE coated plunger stopper, direct contact, 30 days at 25° C./60% RH, ammonium acetate pH4 buffer (20 mM)+0.02% Tween 80, 45 μg/ml) |
| --- | --- | --- | --- |
| Ala-Ala-His-Ala-Ala (AAHAA; synthesized pentapeptide) [mimetic model pentapeptide] | react with insoluble tungsten |  |  |
| Ala-Ala-Trp-Ala-Ala (AAWAA; synthesized pentapeptide) [mimetic model pentapeptide] |  | detected | more important when the peptide is in direct contact with the non-coated plunger stopper |
